Measured values as given in US20260078171A1.

Each substance was assayed against SARS-CoV-2 Wild-type (D614G) spike glycoprotein (SARS-CoV-2) (UniProt P0DTC2) (assay: cell-based or functional assay).

Sequence of VYD222 (antibody) (VH): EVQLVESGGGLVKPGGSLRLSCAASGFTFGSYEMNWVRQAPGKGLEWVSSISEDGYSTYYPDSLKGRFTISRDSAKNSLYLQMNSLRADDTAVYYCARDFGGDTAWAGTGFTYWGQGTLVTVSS
Sequence of VYD222 (antibody) (VL): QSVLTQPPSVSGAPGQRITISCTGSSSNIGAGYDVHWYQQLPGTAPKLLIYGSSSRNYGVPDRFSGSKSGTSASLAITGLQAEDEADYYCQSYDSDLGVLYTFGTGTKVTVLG
Sequence of VYD224 (antibody) (VH): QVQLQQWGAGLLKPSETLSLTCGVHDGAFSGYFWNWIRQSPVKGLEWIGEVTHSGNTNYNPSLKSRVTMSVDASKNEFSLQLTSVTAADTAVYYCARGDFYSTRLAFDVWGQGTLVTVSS
Sequence of VYD224 (antibody) (VL): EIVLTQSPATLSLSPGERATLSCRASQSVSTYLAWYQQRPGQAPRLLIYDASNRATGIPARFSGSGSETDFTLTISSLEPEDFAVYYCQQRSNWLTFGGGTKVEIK
Sequence of ADI-58125 (antibody) (VH): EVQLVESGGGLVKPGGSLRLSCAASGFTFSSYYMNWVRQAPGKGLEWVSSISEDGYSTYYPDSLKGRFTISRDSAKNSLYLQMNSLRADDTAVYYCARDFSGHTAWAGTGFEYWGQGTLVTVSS
Sequence of ADI-58125 (antibody) (VL): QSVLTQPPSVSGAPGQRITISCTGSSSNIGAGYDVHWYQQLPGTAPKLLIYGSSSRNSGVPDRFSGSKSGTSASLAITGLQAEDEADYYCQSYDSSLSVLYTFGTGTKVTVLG
Sequence of VYD223 (antibody) (VH): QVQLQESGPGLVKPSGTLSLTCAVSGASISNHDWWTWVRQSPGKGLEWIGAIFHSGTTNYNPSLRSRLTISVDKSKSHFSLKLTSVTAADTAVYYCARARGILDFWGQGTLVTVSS
Sequence of VYD223 (antibody) (VL): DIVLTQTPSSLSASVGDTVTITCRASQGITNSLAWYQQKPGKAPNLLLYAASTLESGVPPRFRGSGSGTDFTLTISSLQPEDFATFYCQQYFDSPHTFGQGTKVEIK

| Substance | IC50, authentic virus neutralization [µg/mL] | IC90, authentic virus neutralization [µg/mL] | IC50, lentivirus-based pseudovirus neutralization [µg/mL] |
| --- | --- | --- | --- |
| CoV2-2130 (antibody) | 0.016 | 0.074 |  |
| VYD223 (antibody) | 0.012 | 0.014 |  |
| VYD224 (antibody) | 0.01 | 0.037 | 0.03 |
| VYD222 (antibody) | 0.033 | 0.193 | 0.03 |
| LY-CoV1404 (antibody) | 0.021 | 0.09 |  |
| ADI-58125 (antibody) | 0.052 | 0.192 |  |
